Laboratory results reported in the RNAGym collection of RNA variant scans (doi:10.1021/acssynbio.7b00057).

B1: Pistol ribozyme (parent)
chain: GGGUCGUUGUUCCAUAAUCGCGUGGAUAUGGCACGCAAGUUUCUACCGGGCACCGUAAAUGUCCGACUGGAGCCGUUCGGGCGGCUAUAAACAGACCUCAGGCCCGAAGCGUGGCGGCACCUGCCGCCGGUGGUAAAAAAGAUCGGAAGAGCACACGUCU

Variants of: B1
Experiment: aptazyme ON/OFF ratio, guanine; higher = stronger switching; co-transcriptional cleavage with and without guanine

Row | Variant | aptazyme ON/OFF ratio
1 | U7C U8G G9U U10A U11A C12G C13A | 1.18
2 | U7C U8G G9U U10A U11A C12G C13G | 1.28
3 | U7C U8G G9U U10A U11A C12G C13U | 1.2
4 | U7C U8G G9U U10C U11G C12A C13A | 1.1
5 | U7C U8G G9U U10C U11G C12A C13G | 1.13
6 | U7C U8G G9U U10C U11G C12A C13U | 1.22
7 | U7C U8G G9U U10C U11G C13U | 1.19
8 | U7C U8G G9U U10C U11G C13G | 1.03
9 | U7C U8G G9U U10C U11G C13A | 1.19
10 | U7C U8G G9U U10A U11C C12G | 1.2
11 | U7C U8G G9U U10A U11C C12A | 1.14
12 | U7C U8G G9U U10A U11C C12U | 1.04
13 | U7C U8G G9U U10A U11G C12U C13G | 1.14
14 | U7C U8G G9U U10A U11G C12U C13U | 1.14
15 | U7C U8G G9U U10A U11G C12U C13A | 1.11
16 | U7C U8G G9U U10C C12U | 1.4
17 | U7C U8G G9U U10C C12A | 1.68
18 | U7C U8G G9U U10C C12G | 1.29
19 | U7C U8G G9U U10A U11G C12G C13G | 1.18
20 | U7C U8G G9U U10A U11G C12G C13A | 1.05
21 | U7C U8G G9U U10A U11G C12G C13U | 1.19

Row | Variant | aptazyme ON/OFF ratio
22 | U7C U8G G9U U10C U11C C12U C13A | 1.05
23 | U7C U8G G9U U10C U11C C12U C13U | 1.09
24 | U7C U8G G9U U10C U11C C12U C13G | 1.05
25 | U7C U8G G9U U10C U11G C12G C13A | 1.15
26 | U7C U8G G9U U10C U11G C12G C13U | 1.08
27 | U7C U8G G9U U10C U11G C12G C13G | 1.15
28 | U7C U8G G9U C12G C13U | 1.28
29 | U7C U8G G9U U10G U11A C12A | 1.25
30 | U7C U8G G9U U10G U11A C12U | 1.13
31 | U7C U8G G9U U10G U11A C12G | 1.17
32 | U7C U8G G9U U10C U11A C12A C13G | 1.15
33 | U7C U8G G9U U10C U11A C12A C13A | 1.26
34 | U7C U8G G9U U10C U11A C12A C13U | 1.24
35 | U7C U8G G9U U10A U11C C13U | 1.02
36 | U7C U8G G9U U10A U11C C13A | 1.05
37 | U7C U8G G9U U10A U11C C13G | 1.05
38 | U7C U8G G9U U10C C12U C13A | 1.38
39 | U7C U8G G9U U10C C12U C13G | 1.32
40 | U7C U8G G9U U10C C12U C13U | 1.38
41 | U7C U8G G9U U10G C12G C13G | 1.08
42 | U7C U8G G9U U10G C12G C13U | 1.07

Row | Variant | aptazyme ON/OFF ratio
43 | U7C U8G G9U U10G C12G C13A | 1.07
44 | U7C U8G G9U U10A U11A C13G | 1.09
45 | U7C U8G G9U U10A U11A C13A | 1.19
46 | U7C U8G G9U U10A U11A C13U | 1.22
47 | U7C U8G G9U U10A U11A C12U | 1.33
48 | U7C U8G G9U U10A U11A C12G | 1.11
49 | U7C U8G G9U U10A U11A C12A | 1.25
50 | U7C U8G G9U U10C U11A C12G C13G | 1.21
51 | U7C U8G G9U U10C U11A C12G C13A | 1.14
52 | U7C U8G G9U U10C U11A C12G C13U | 1.2
53 | U7C U8G G9U C12U | 1.97
54 | U7C U8G G9U U10C U11C C13A | 1.03
55 | U7C U8G G9U U10C U11C C13U | 1.03
56 | U7C U8G G9U U10C U11C C13G | 1.05
57 | U7C U8G G9U U10C U11G C12U C13A | 1.24
58 | U7C U8G G9U U10C U11G C12U C13G | 1.22
59 | U7C U8G G9U U10C U11G C12U C13U | 1.41
60 | U7C U8G G9U U10C U11C C12G C13G | 1.08
61 | U7C U8G G9U U10C U11C C12G C13A | 1.13
62 | U7C U8G G9U U10C U11C C12G C13U | 1.04
63 | U7C U8G G9U U10C U11A C12U | 1.41

Row | Variant | aptazyme ON/OFF ratio
64 | U7C U8G G9U U10C U11A C12A | 1.43
65 | U7C U8G G9U U10C U11A C12G | 1.26
66 | U7C U8G G9U U10C C12A C13A | 1.41
67 | U7C U8G G9U U10C C12A C13U | 1.37
68 | U7C U8G G9U U10C C12A C13G | 1.19
69 | U7C U8G G9U U10A U11C C12G C13G | 1.27
70 | U7C U8G G9U U10A U11C C12G C13U | 1.19
71 | U7C U8G G9U U10A U11C C12G C13A | 1.16
72 | U7C U8G G9U U10G C12A C13G | 1.09
73 | U7C U8G G9U U10G C12A C13A | 1.12
74 | U7C U8G G9U U10G C12A C13U | 1.15
75 | U7C U8G G9U U10A C12G C13U | 1.21
76 | U7C U8G G9U U10A C12G C13A | 1.13
77 | U7C U8G G9U U10A C12G C13G | 1.18
78 | U7C U8G G9U U10A C12A C13U | 1.22
79 | U7C U8G G9U U10A C12A C13A | 1.15
80 | U7C U8G G9U U10A C12A C13G | 1.15
81 | U7C U8G G9U U10C U11C C12G | 1.07
82 | U7C U8G G9U U10C U11C C12A | 1.07
83 | U7C U8G G9U U10C U11C C12U | 1.1
